Experimental findings from patent US12077763B2, “RNA-based control of powdery mildew” (Greenlight Biosciences, Inc., priority 2021, dated 2024) are described below.

This data set concerns E. necator. As to the kind of experiment: Leaf disc assay, dry inoculum (settling tower), decrease in disease severity / hyphal growth (Example 2). The note with it: decrease in disease severity (hyphal growth) relative to untreated control, value ± SE; for % decrease =/− SE TP1: time point 1 (untreated control hyphal growth ≥50%); for % decrease =/− SE TP2: time point 2.

B1: ES52: dsRNA trigger SEQ ID NO 113; gene target Hypotethical effector (nucleic acid)
DNA: ATGTTCAAAAAATTTATTTTCCTCTCAAGCCAGGCCTTAATGGTACTTTCGAATCCTCTTTATATTGGTGATAATCATCTTCCGAGCGACCAAAATAATCCGTTCTTAATATCCTATGATTGGAAAGCTGGCTTTACAAGCGAATTCGAACTTCATGATTCCTGCAATGCAACACAGAAAAAACAGCTGCAAGACGGCCTCTCTGACGCTGTGACACTTGCTAGGCATGCTAAAGAACATATTCTTGTGAAGGGAACTGAATCACCCATATATAAGAAATATTTCGGTCAAGGTCCTACAGGATCGGTCCTGGGATGGTATGACAAAATTGCTTCTTCTGACCGAAAAGACATCCTTTTCCGTTGTGATGACCCCGATAAGAATTGCCAAACTCAACCTCAATGGGCTGGACATCACCGCGGAAAAAATGCGTCATTAGAGACAGTGATCTGCGAGCTTTCATTTCTCACTCGGCTTCCACTTGAAGCTC
Take B1: the “% decrease =/− SE TP1” value amounted to 6 ± 1% and the “% decrease =/− SE TP2” value is 6 ± 2%.

B2: GS3310 (nucleic acid)
sense: CGUCGACCUCAAAAGCAGAGAAGUUGGGCGAGUUGAUUAUUGCUUCUACGGAGAAAGCCUGUAUAACUGUAGGUUCGUAGCUUUGAGCAUUCAAAAAUUUGUUGUAAACGAUUUUAGUAGAUGAGUAUUCACUUGGCAAAUGAGAGAUUUGAUCUGCUAUUGUUUGAGCGUCUGCAAAGGUUGGAAUAUCUUUCCCUACGCCAGAGAAACUUAAAACAAUAUUUUUACUACUUGACCGACUCAAUUGUGCCUUAGCCUUCUCUCCCAAUACCACAAUAUCGGCAUUGGGGUUUUCAGAGAGCAUUUUUCGAACGUGUUUACUUAAGCCUGAAUGAAUACCGCCGCACAAUCCUUUAUCUGAGCUUGCAACUACAAUCAAGUACUUUUGGUCAUCUUUU
antisense: AAAAGAUGACCAAAAGUACUUGAUUGUAGUUGCAAGCUCAGAUAAAGGAUUGUGCGGCGGUAUUCAUUCAGGCUUAAGUAAACACGUUCGAAAAAUGCUCUCUGAAAACCCCAAUGCCGAUAUUGUGGUAUUGGGAGAGAAGGCUAAGGCACAAUUGAGUCGGUCAAGUAGUAAAAAUAUUGUUUUAAGUUUCUCUGGCGUAGGGAAAGAUAUUCCAACCUUUGCAGACGCUCAAACAAUAGCAGAUCAAAUCUCUCAUUUGCCAAGUGAAUACUCAUCUACUAAAAUCGUUUACAACAAAUUUUUGAAUGCUCAAAGCUACGAACCUACAGUUAUACAGGCUUUCUCCGUAGAAGCAAUAAUCAACUCGCCCAACUUCUCUGCUUUUGAGGUCGACG
In the case of B2, the “% decrease =/− SE TP1” value is on record as 22 ± 8% and the “% decrease =/− SE TP2” value stood at 11 ± 8%.

B3: GS3311 (nucleic acid)
sense: CUUCUCGGUAAUUCCGCAACAUUUUUAACCAUGACAUUCCAUUUCGUACAUGCUCUUGAUAUUCCGAUAACGUCAGCCUCUUGAAAUGCAUCACUUCCUAUGGCAGUAGUGGGCACUUGGCCGCAAAAAACUACUAGUGGUGUACCGUCAGAUAGAGCGUCCUGCAUCGGUGUUAUGACAUUUGUUGCACCAGGGCCAGAAGUAACUAGAAUCACCCCAGGAAGUCCACUAGCUCUGGCAUAGCCUUCAGCCAUAUGUCCAGCACCCUGUUCAUGUUUCGGUAGAAUAAAAUCGAAGUGCCUUGAAUUAUAAAUAGCGUCGAAAACGGGAAGAAUUGCUCCACCAGGAUAACCGAAAAUAUGUUUUACACCUUGCCGUAACAUCAUUUCGUGAAAUAU
antisense: AUAUUUCACGAAAUGAUGUUACGGCAAGGUGUAAAACAUAUUUUCGGUUAUCCUGGUGGAGCAAUUCUUCCCGUUUUCGACGCUAUUUAUAAUUCAAGGCACUUCGAUUUUAUUCUACCGAAACAUGAACAGGGUGCUGGACAUAUGGCUGAAGGCUAUGCCAGAGCUAGUGGACUUCCUGGGGUGAUUCUAGUUACUUCUGGCCCUGGUGCAACAAAUGUCAUAACACCGAUGCAGGACGCUCUAUCUGACGGUACACCACUAGUAGUUUUUUGCGGCCAAGUGCCCACUACUGCCAUAGGAAGUGAUGCAUUUCAAGAGGCUGACGUUAUCGGAAUAUCAAGAGCAUGUACGAAAUGGAAUGUCAUGGUUAAAAAUGUUGCGGAAUUACCGAGAAG
For the molecule B3, the “% decrease =/− SE TP1” value stood at 29 ± 7% and the “% decrease =/− SE TP2” value is listed as 24 ± 7%.
